Measured values: article PMC10395195

Tests used:
[1] = target: Tle1^Vc (Vibrio cholerae E1); test: SPR
[2] = target: Tle1^Vc (Vibrio cholerae E1); test: ITC

Substance: VgrG1^E1 (natural protein)
- Kd [1]: 2030 nM

Substance: Tli1^tox- (natural protein)
- Kd [2]: 0.35 nM
